In US20100021987:

With “GST fusion of the catalytic domain of the Xanthomonas campestris pathovar vesicatoria protease XopD (GST-XopD)” the “activity level (grade)” value (6xHis-AtSUMO2-eGFP) was “+/-”, the “activity level (grade)” value (6xHis-hSUMO-1-eGFP) was “-” and the “activity level (grade)” value (6xHis-ySmt3-eGFP) was “+/-”. The “activity level (grade)” value (6xHis-hSUMO-3-eGFP) was “-”, the “activity level (grade)” value (6xHis-T-SUMO-eGFP) was “+/-” and the “activity level (grade)” value (6xHis-AtSUMO1-eGFP) was “-”.
